# Measured values as given in PMC3748285 (Cell reports, 2013).
# B1: SV40 large tumor antigen LTag131-627 (wild type) (domain or fragment)
# chain: KVEDPKDFPSELLSFLSHAVFSNRTLACFAIYTTKEKAALLYKKIMEKYSVTFISRHNSYNHNILFFLTPHRHRVSAINNYAQKLCTFSFLICKGVNKEYLMYSALTRDPFSVIEESLPGGLKEHDFNPEEAEETKQVSWKLVTEYAMETKCDDVLLLLGMYLEFQYSFEMCLKCIKKEQPSHYKYHEKHYANAAIFADSKNQKTICQQAVDTVLAKKRVDSLQLTREQMLTNRFNDLLDRMDIMFGSTGSADIEEWMAGVAWLHCLLPKMDSVVYDFLKCMVYNIPKKRYWLFKGPIDSGKTTLAAALLELCGGKALNVNLPLDRLNFELGVAIDQFLVVFEDVKGTGGESRDLPSGQGINNLDNLRDYLDGSVKVNLEKKHLNKRTQIFPPGIVTMNEYSVPKTLQARFVKQIDFRPKDYLKHCLERSEFLLEKRIIQSGIALLLMLIWYRPVAEFAQSIQSRIVEWKERLDKEFSLSVYQKMKFNVAMGIGVLD
# B2: EP-half ori 32 bp (dsDNA)
# DNA 1: ACTACTTCTGGAATAGCTCAGAGGCCGAGGCG
# DNA 2: CGCCTCGGCCTCTGAGCTATTCCAGAAGTAGT
# Assays:
# [1] = target: LTag131-627 V350E/P417D (Simian virus 40); assay: SEC + other: SDS-PAGE gel quantification
# [2] = target: the molecule itself; assay: crystal structure
# [3] = target: the molecule itself; assay: SEC
# [4] = target: SV40 large T antigen LTag131-627 (Simian virus 40, UniProt P03070 131-627); assay: X-ray crystallography
molecule,measurement,setting,value
LTag131-627 L286Dt/R567E (domain or fragment),stoichiometry N,[1],1 mut1:mut2
B1,stoichiometry N,[2],2
same,stoichiometry N,[3],6
B2,binding result,[4],binds
